Patent publication US20180369322A1

How the values were obtained:
[1] = biological target: rat plasma proteins; assay: equilibrium dialysis, drug at 10 and 100 µM, rat plasma
[2] = biological target: human plasma proteins; assay: equilibrium dialysis, drug at 10 and 100 µM, human plasma
[3] = biological target: monkey plasma proteins; assay: equilibrium dialysis, drug at 10 and 100 µM, monkey plasma

Measured: in vitro plasma protein binding

R5000 (peptide)
> 99.9%: all assays above
